Experimental data: patent publication US20070048268A1 (ZymoGenetics, published 2007)

Biological target: biotinylated murine IL-21 (murine, UniProt Q9ES17 18-146)
Assay: flow cytometry on MOLT-13, HuT-78, HuT-102, DEL and YT cells, 40 ng/ml to 1000 ng/ml, Streptavidin-PE
Method: Cells were analyzed on a FACSScan using CellQuest software (Becton Dickinson, Mountain View, Calif.).

B1: human IL-21 receptor (receptor)
chain: not shown
notes: also called zalpha11 receptor; zalpha11
B1: binds.
